The target in test [1] is T1, human RON receptor (human, UniProt Q04912 25-1400). The test can be described thus: cell-based or functional assay.
Test [2] has as its target T1, human RON receptor. The test can be described thus: flow cytometry on HT29 cells, FITC-coupled anti-human IgG1 secondary. On the procedure:
Colon cancer HT29 cell line expressing ˜19,000 RON molecules per cell were used as the model. Mouse PCM5B14 was used as the positive control. Individual H5B14 clones at different concentrations were incubated with cells followed by addition of FITC-coupled anti-human IgG1 antibody. Fluorescence intensities from individual samples were analyzed using the BD flow cytometer. Results in FIG. 2 are the dose-dependent specific binding of individual H5B14s. […] Results in Table 1 show the individual values reflecting the binding affinity and sensitivity of individual H5B14 clones to human RON receptor.

B1: Mouse Zt/g4 (antibody, from another filing, V domains shown)
VH: EVQLQQSGAELVKPGASVKLSCTTSGFNIIDTYIHWVNQKPDQGLEWIGRIDPADGNRKSDPKFQVKATITVDTSSNTAYLQLSSLTSGDTAVYYCARGYGNLNAMDSWGQGTSVTVSS
VL: DIQMNQSPSSLSASLGDTITITCHASQNINVWLNWYQQKPGNIPKLLIYKASNLHTGVPSRFSGSGSGTGFTLTISSLQPEDIATYYCQQGQSYPLTFGGGTKLEIK
In test [1], B1 displayed an Internalization efficacy of cell surface RON (EC50, hours), Breast T-47D of 23.5 h; an Internalization efficacy of cell surface RON (EC50, hours), Colon HT-29 of 11 h; an Internalization efficacy of cell surface RON (EC50, hours), Lung H358 of 7.47 h; an Internalization efficacy of cell surface RON (EC50, hours), Pancreatic L3.6p1 of 14.1 h.

B2: Humanized PCM5B14 H2L4 (IgG1/κ, designated as H5B14) (antibody, V domains shown)
VH: QVQLVQSGAEVKKPGATVKISCKVSGYTFTDYHMDWVQQAPGKGLEWMGDINPNNGGAIYNQKFKGRVTITADTSTDTAYMELSSLRSEDTAVYYCARSHYDYAGGAWFAYWGQGTLVTVSR
VL: EIVMTQSPGTLSLSPGERATLSCKSSQSLLFSGNQKNYLAWYQQKPGQAPRLLIYWASTRASGIPDRFSGSGSGTDFTLTISRLEPEDFAVYYCQQYYSFPRTFGQGTKLEIKR
notes: also called H5B14H2L4; Humanized 5B14
Regarding B2, in test [2], the EC50 (commonly the concentration needed to bring the measured effect to its halfway point) turned out to be 2.22 µg/mL and the LogEC50 is 0.346 log(µg/ml). Further, in test [1], the “Internalization efficacy of cell surface RON (EC50, hours), Breast T-47D” value is 8.26 h; the “Internalization efficacy of cell surface RON (EC50, hours), Colon HT-29” value is 5.33 h; the “Internalization efficacy of cell surface RON (EC50, hours), Lung H358” value worked out at 7.94 h; the “Internalization efficacy of cell surface RON (EC50, hours), Pancreatic L3.6p1” value came to 8.17 h.

The values are drawn from US20190352422A1 (PCM TARGETECH, published 2019).
